We go through ten molecules from article PMC10397247.

Holding throughout (assay): two-hybrid library CCmax;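 also: natural log of median RNA to DNA barcode read ratio; higher means stronger binding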
One experiment deals with T1, Core_NNII-es_KKKK.
T1 chain: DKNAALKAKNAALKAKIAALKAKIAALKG
The settings on record: mean of both orientations.

Another experiment deals with T2, APC8191-AA.
T2 chain: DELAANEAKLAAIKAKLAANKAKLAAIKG
The settings on record: mean of both orientations.

A further experiment deals with T3, APC9319-AA.
T3 chain: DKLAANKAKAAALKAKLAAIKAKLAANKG
The settings on record: mean of both orientations.

For the next experiment, the target named is T4, APC9096-AA.
T4 chain: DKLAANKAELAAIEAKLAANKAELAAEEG
Conditions: mean of both orientations.

The target of the next experiment is T5, APC3645-AA.
T5 chain: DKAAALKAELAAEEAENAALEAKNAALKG

A further experiment concerns the target T6, APC232-AA.
T6 chain: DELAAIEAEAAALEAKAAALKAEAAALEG
The settings on record: mean of both orientations.

A further experiment concerns the target T7, 4H3330-AA.
T7 chain: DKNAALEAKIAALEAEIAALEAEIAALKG
Conditions: mean of both orientations.

The next experiment concerns the target T8, 4H2219-AA.
T8 chain: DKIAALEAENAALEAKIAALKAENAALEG
The settings on record: mean of both orientations.

A further experiment deals with T9, 4H1985-AA.
T9 chain: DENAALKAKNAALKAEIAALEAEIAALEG
The settings on record: mean of both orientations.

In another experiment the target is T10, 4H4033-AA.
T10 chain: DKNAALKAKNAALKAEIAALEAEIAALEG
Conditions: mean of both orientations.

The target of the next experiment is T11, 4H3922-AA.
T11 chain: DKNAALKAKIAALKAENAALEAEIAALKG
The settings on record: mean of both orientations.

The target of another experiment is T12, 4H2985-AA.
T12 chain: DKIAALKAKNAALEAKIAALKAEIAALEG
The settings on record: mean of both orientations.

For another experiment, the target named is T13, 4H2646-AA.
T13 chain: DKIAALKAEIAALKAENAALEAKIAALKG
Conditions: mean of both orientations.

Another experiment deals with T14, 4H3664-AA.
T14 chain: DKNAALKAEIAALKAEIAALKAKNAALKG
Conditions: mean of both orientations.

In the next experiment the target is T15, 4H816-AA.
T15 chain: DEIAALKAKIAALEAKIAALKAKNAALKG
The settings on record: mean of both orientations.

A further experiment addresses T16, 4H3134-AA.
T16 chain: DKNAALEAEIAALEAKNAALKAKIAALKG
The settings on record: mean of both orientations.

For the next experiment, the target named is T17, O2-AA.
T17 chain: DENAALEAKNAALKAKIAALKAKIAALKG
Conditions: mean of both orientations.

In a further experiment the target is T18, 4H3446-AA.
T18 chain: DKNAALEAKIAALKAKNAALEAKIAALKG
The settings on record: mean of both orientations.

The next experiment deals with T19, 4H391-AA.
T19 chain: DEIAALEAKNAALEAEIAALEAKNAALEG
The settings on record: mean of both orientations.

The next experiment concerns the target T20, 4H1064-AA.
T20 chain: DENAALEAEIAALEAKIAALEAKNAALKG

The next experiment deals with T21, 4H428-AA.
T21 chain: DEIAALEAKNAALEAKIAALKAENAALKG
The settings on record: mean of both orientations.

For another experiment, the target named is T22, 4H146-AA.
T22 chain: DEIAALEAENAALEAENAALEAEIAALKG
Conditions: mean of both orientations.

For a further experiment, the target named is T23, 4H1146-AA.
T23 chain: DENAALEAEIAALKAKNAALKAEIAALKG
The settings on record: mean of both orientations.

The next experiment has as its target T24, 4H2948-AA.
T24 chain: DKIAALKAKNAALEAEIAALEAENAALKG
The settings on record: mean of both orientations.

The next experiment deals with T25, 4H3709-AA.
T25 chain: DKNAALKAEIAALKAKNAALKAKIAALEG
Conditions: mean of both orientations.

In a further experiment the target is T26, 4H3628-AA.
T26 chain: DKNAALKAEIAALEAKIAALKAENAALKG
Conditions: mean of both orientations.

Another experiment deals with T27, P5-AA-1HAA-L.
T27 chain: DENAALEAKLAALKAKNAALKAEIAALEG
Conditions: mean of both orientations.

A further experiment has as its target T28, P5-AA-1HGe-T.
T28 chain: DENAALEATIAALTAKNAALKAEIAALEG
The settings on record: mean of both orientations.

Another experiment has as its target T29, P5-AA-1HGe-Y.
T29 chain: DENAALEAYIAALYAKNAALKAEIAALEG
The settings on record: mean of both orientations.

Another experiment has as its target T30, P5-AA-1HAA-H.
T30 chain: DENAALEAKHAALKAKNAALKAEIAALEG
The settings on record: mean of both orientations.

The target of another experiment is T31, P5-AA-12HGe-Y.
T31 chain: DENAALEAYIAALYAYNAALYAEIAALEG
Conditions: mean of both orientations.

Another experiment deals with T32, P6-AA-12HGe-K.
T32 chain: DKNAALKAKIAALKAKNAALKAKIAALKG
Conditions: mean of both orientations.

A further experiment concerns the target T33, P6-AA-1HAA-V.
T33 chain: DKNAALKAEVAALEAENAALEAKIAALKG
The settings on record: mean of both orientations.

The target in another experiment is T34, P6-AA-1HGe-W.
T34 chain: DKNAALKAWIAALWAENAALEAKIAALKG
The settings on record: mean of both orientations.

The target of the next experiment is T35, P6-AA-1HAA-S.
T35 chain: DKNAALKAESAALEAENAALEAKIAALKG
Conditions: mean of both orientations.

Another experiment deals with T36, P6-AA-1HAA-R.
T36 chain: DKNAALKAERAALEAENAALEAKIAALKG
Conditions: mean of both orientations.

Another experiment has as its target T37, P6-AA-1HAA-Y.
T37 chain: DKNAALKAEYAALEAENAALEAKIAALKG
Conditions: mean of both orientations.

The next experiment addresses T38, 4H3365-AA.
T38 chain: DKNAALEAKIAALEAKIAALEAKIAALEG
Conditions: mean of both orientations.

A further experiment has as its target T39, 4H1802-AA.
T39 chain: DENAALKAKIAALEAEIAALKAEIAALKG
The settings on record: mean of both orientations.

A further experiment has as its target T40, 4H2750-AA.
T40 chain: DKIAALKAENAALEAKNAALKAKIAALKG
Conditions: mean of both orientations.

For a further experiment, the target named is T41, 4H2604-AA.
T41 chain: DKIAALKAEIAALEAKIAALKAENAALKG
Conditions: mean of both orientations.

Another experiment addresses T42, 4H432-AA.
T42 chain: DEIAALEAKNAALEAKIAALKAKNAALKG
The settings on record: mean of both orientations.

B1: 4H1153-AA (peptide)
chain: DENAALEAENAALEAEIAALEAEIAALEG
Take B1: in the experiment with Core_NNII-es_KKKK, the interaction score is 1.83.

B2: 4H1845-AA (peptide)
chain: DENAALKAKIAALEAKNAALEAKIAALEG
For the molecule B2, the interaction score is -1.67 with APC8191-AA; -1.55 in the experiment with APC9319-AA; -2.08 with APC9096-AA; -1.23 in the experiment with APC3645-AA; -2.09 with APC232-AA; -1.3 with 4H3330-AA.

B3: 4H1626-AA (peptide)
chain: DENAALKAEIAALKAENAALKAEIAALKG
In the case of B3, the interaction score in the experiment with 4H2219-AA was -1.54.

B4: 4H1350-AA (peptide)
chain: DENAALEAKIAALKAEIAALEAKIAALKG
For B4, the interaction score with 4H1985-AA was 0.316; with 4H4033-AA, -0.0842; with 4H3922-AA, -0.898; in the experiment with 4H2985-AA, 0.636; in the experiment with 4H2646-AA, -0.455; in the experiment with 4H3664-AA, 0.037. Also, the interaction score with 4H816-AA stood at 1.16; with 4H3134-AA, 0.186.

B5: 4H171-AA (peptide)
chain: DEIAALEAENAALEAKIAALKAENAALEG
B5 returned an interaction score in the experiment with O2-AA of -1.24.

B6: 4H1064-AA (peptide)
chain: DENAALEAEIAALEAKIAALEAKNAALKG
B6: the interaction score with 4H3446-AA is -1.11; with 4H391-AA, -1.37; with 4H1064-AA, 0.0437; with 4H428-AA, -1.04; in the experiment with 4H146-AA, -1.5; with 4H1146-AA, -0.282. Further, the interaction score with 4H2948-AA was -0.884; with 4H3709-AA, -0.57; with 4H3628-AA it was 1.07.

B7: 4H3606-AA (peptide)
chain: DKNAALKAEIAALEAENAALEAKIAALKG
As to B7, the interaction score was 2.39 with P5-AA-1HAA-L; 2.43 in the experiment with P5-AA-1HGe-T; 2.36 with P5-AA-1HGe-Y; 2.02 with P5-AA-1HAA-H; 2.52 in the experiment with P5-AA-12HGe-Y.

B8: 4H1401-AA (peptide)
chain: DENAALEAKIAALKAKNAALKAEIAALEG
Turning to B8, the interaction score with P6-AA-12HGe-K was -0.592; with P6-AA-1HAA-V, 2.18; in the experiment with P6-AA-1HGe-W, 1.14; in the experiment with P6-AA-1HAA-S, 1.9; with P6-AA-1HAA-R, 1.83; with P6-AA-1HAA-Y, 2.37.

B9: 4H1257-AA (peptide)
chain: DENAALEAENAALKAKIAALKAEIAALEG
With B9, the results for the interaction score in the experiment with 4H3365-AA, with 4H1802-AA and with 4H2750-AA were -1.46, -1.38 and -1.22, respectively.

B10: 4H249-AA (peptide)
chain: DEIAALEAENAALKAKNAALKAEIAALEG
For the molecule B10, the interaction score with 4H2604-AA was -1.73; with 4H432-AA, -1.72.
